Where a chain is given by its changes, count along the chain named.
What was measured:
Assay in all cases: cell_activity
[1] = tested on: T1, MIT 25-26x.91 (synthetic construct); conditions: 500 ng mRNA, FlpIn CHO; 16% in repeat (FIG. 4)
T1 sequence: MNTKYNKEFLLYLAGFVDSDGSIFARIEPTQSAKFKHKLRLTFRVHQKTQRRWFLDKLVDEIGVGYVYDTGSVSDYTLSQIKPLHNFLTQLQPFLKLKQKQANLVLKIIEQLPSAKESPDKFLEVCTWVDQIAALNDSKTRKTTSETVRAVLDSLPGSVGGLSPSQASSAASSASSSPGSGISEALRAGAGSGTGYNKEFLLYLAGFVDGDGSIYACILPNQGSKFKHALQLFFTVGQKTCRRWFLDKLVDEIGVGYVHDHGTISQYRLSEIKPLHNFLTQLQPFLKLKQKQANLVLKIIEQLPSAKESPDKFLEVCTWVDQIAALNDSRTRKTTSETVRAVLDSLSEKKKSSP

[2] = tested on: T2, MIT 25-26x.48 (synthetic construct); conditions: 500 ng mRNA, FlpIn CHO
T2 sequence: T1 sequence with S19A, Q80E, H259N, H261F, T263S, H276Y

[3] = tested on: T3, MIT 25-26L.35 (synthetic construct); conditions: 500 ng mRNA, FlpIn CHO
T3 sequence: T1 sequence with S19A, H46W, T70E, D75S, Q80E, H259Q, T263R

MIT 25-26 wild-type site (m.3243A)
activity [1]: 20 % indels | activity [2]: 44 % indels | activity [3]: 2 % indels
